Data on 1 molecule can be found in patent US20100047243A1 (published 2010).

In this experiment the target is T1, recombinant cynomolgus macaque IGF-1R (IGF-1R-Fc fusion protein of Example 4) (cynomolgus macaque (Macaca fascicularis)).
T1 construct: also called Cynomolgus IGF-1R; cyno IGF-1R
The experiment is described as follows: Biacore T100, antibody captured on Protein A, recombinant cynomolgus IGF-1R analyte (256-16 nM), HBS-EP, 37 C. (SPR reads the build-up and loss of mass on a sensor chip optically.)

T1 sequence (chain, as listed by the source limits assumed): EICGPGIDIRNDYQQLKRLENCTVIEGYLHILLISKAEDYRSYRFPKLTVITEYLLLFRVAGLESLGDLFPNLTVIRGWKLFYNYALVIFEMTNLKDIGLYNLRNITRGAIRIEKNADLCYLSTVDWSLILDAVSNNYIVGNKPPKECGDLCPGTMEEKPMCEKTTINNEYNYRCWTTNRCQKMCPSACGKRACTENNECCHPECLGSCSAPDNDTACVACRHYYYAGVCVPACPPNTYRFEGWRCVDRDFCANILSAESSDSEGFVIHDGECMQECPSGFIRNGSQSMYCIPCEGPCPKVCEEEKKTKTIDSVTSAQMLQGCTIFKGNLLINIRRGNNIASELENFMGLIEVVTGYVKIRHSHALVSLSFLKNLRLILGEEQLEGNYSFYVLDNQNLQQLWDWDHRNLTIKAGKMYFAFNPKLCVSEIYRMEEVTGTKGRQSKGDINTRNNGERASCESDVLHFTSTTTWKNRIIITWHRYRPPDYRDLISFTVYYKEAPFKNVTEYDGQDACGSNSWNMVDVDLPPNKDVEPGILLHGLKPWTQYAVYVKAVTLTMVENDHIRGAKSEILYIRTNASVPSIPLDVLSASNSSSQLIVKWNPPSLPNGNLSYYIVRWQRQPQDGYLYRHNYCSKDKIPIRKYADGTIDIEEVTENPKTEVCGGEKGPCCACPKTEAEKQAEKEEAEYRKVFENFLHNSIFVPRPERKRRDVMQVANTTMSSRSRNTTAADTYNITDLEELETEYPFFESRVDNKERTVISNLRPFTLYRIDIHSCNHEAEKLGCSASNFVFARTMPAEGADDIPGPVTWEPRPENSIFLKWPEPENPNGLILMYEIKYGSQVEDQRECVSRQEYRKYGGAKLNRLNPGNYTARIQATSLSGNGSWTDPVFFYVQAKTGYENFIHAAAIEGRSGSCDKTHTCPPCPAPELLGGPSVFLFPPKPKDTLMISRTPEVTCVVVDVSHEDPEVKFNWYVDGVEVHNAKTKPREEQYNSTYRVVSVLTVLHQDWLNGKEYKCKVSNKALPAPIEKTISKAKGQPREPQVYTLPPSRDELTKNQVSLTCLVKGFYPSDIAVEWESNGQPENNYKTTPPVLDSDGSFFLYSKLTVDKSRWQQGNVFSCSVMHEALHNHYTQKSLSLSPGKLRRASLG
Procedure: Protein A was immobilised on a CM5 surface by primary amine coupling in accordance with the manufacturers standard protocols. Antibodies against IGF-1R were captured on this surface and after a period of stabilisation recombinant human or cynomolgus IGF-1R was injected over this captured surface. […] Data was analysed using the 1:1 model inherent to the Biacore machine, the work was carried out on the T100 using HBS-EP running buffer at 37° C.

B1: 6E11 chimeric antibody (antibody, human IgG1, kappa, V domains shown)
VH: EVQLQQSGPELVKPGASVRISCKASGYAFTDYYMNWVKQSHGKSLEWVANINPNNGGTNYNQKFKDKATLTVDKSSNTAYMELRSLTSEDTAVYYCARWILYYGRSKWYFDVWGTGTLVTVSS
VL: DVLMTQTPLSLPVSLGDHASISCRSSQSIVQSNGDTYLEWYLQKPGQSPKLLIYRISNRFSGVPDRFSGSGSGTDFTLKISRVEAEDLGVYYCFQGSHVPYTFGGGTKLEIKR
notes: Murine 6E11 variable domains on human IgG1/kappa wild type constant regions; also called 6E11 chimera; 6E11 chimaera
Usually Kd stands for the equilibrium constant for the complex coming apart. Regarding B1, the Kd was found to be 0.19 nM.
